Reference: US20200157146A1

Molecular target: HLA-A2 (human)
Assay: T2 cells without peptide stained with MA2.1 mAb, flow cytometry (baseline of the stabilization assay)

## MA2.1 mAb (antibody)
  mean channel fluorescence: 90
